According to patent publication US9579382B2:

Molecular target: human CD20 (human) (UniProt P11836)

rituximab (antibody)
% of cytotoxicity (dead CFSE+ 7-AAD+ Raji target cells), ADCC with PBMC effector cells at 25:1 for 6 hours: 25%
